Entries after “also recorded” stand apart in the source; their conditions may differ.
Key:
[1] = Determination of oxidation levels by LC-MS/MS; format: physicochemical
Experimental: Following the protein oxidation measurement method described in Example 2 or by referring to Bettinger et al., the oxidation levels were determined. It was observed that the GLP-1 fusion protein YN-011 of the present invention was not oxidized at position W31, whereas the oxidation level of […] at the same position exceeded 5%. The oxidation occurred at the location indicated by the rectangular box in the structure of W31.

db/db mice = test: Multiple subcutaneous injections in db/db mice (type 2 diabetes model); format: in vivo; settings: for rate of fasting blood glucose reduction: 54 hours (day 21) after the 7th administration; for average rate of decline in random blood glucose levels: 72 hours after the 7th administration; for average rate of fasting blood glucose reduction: average over measurement time points
Experimental: The impact of multiple subcutaneous injections of YN-011 on reducing blood glucose levels was evaluated in db/db mice (Jackson Laboratories, 000642). The mice were kept under normal lighting conditions (12 hours light/12 hours dark) and at room temperature, with free access to food (normal rodent chow) and water. Db/db mice lack leptin receptors and spontaneously develop obesity, hyperglycemia, and pancreatic B-cell atrophy by 4 weeks of age.
Sixty affected db/db mice (33-45g) were divided into six groups of 10 mice each (5 males and 5 females) and administered 0 (PBS buffer control), 0.15, 0.3, 0.6, or 1.2 mg/kg of YN-011, or 0.3 mg/kg of Degludec via subcutaneous injection. Another group of wild-type mice (17-22g) with the same genetic background served as the normal control. The administration frequency was once every 3 days (Q3D), with a total of 9 doses administered over a period of 26 days. […] The duration of the hypoglycemic effect ranged from 34 to 72 hours within the dose range of 0.15-1.2 mg/kg.

T2DM subjects = test: Phase IIa clinical trial, efficacy and safety in T2DM subjects; format: in vivo, human
Experimental: Key inclusion criteria for the phase IIa study: • Patients with T2DM (WHO 1999) who have not taken metformin for at least 1 week and have not taken any other oral antidiabetic drugs for at least 2 weeks. • HbA1c levels at screening: 7.0%≤HbA1c≤10.0%. • Age between 18 and 65 years at screening. • BMI ≥20 kg/m^2 and ≤40 kg/m^2.
Key exclusion criteria for the phase IIa study: • Type 1 diabetes. • Fasting C-peptide <0.81 ng/mL. • Laboratory parameters meeting one of the following criteria: alanine aminotransferase (ALT) levels ≥2.5 ×ULN, and/or aspartate aminotransferase (AST) levels ≥2.5 ×ULN, fasting triglycerides >5.6 mmol/L; estimated glomerular filtration rate (eGFR) calculated by the CKD-EPI (EPI-(Scr)) equation <45 mL/min/1.73 m^2, • Known susceptibility to familial (first-degree relatives) or personal history of type 2 multiple endocrine neoplasia or medullary thyroid carcinoma. • Uncontrolled hypertension. • Known history of pancreatitis, pancreatic cancer, or serum amylase >1.2 ×ULN, or high-risk factors for pancreatitis at screening. • Patients with uncontrolled hypothyroidism. • Suspicion of active infection. • Positive hepatitis B surface antigen (HBsAg), hepatitis C antibody (HCV-Ab), human immunodeficiency virus antibody (HIV-Ab), or Treponema pallidum antibody (TPAb). • Treatment with GLP-1 receptor agonists, DPP-4 inhibitors, or insulin in the 3 months prior to randomization. • History of grade 3-4 allergy to any protein drug as per CTCAE. • Blood donation or blood loss exceeding 450 mL in the 3 months prior to screening. • Any significant endocrine, immune, coagulation, urinary reproductive tract abnormality, or hematological disease. • Clinically significant gastric emptying disorder (e.g., gastric outlet obstruction), severe chronic gastrointestinal disease (e.g., active ulcer within 6 months), long-term use of drugs directly affecting gastrointestinal motility, or previous gastrointestinal surgery. • Any other condition that the investigator or primary physician deems unsuitable for participation in the study. […]

[2] = db/db mice, after the last administration (9th dose, day 26)

B1: YN-011: GLP-1 fusion protein of SEQ ID NO: 7: GLP-1 (A8G, G22E, R36G), linker peptide and IgG2/Fc domain (C222S, A330S, P331S) (protein)
chain: HGEGTFTSDVSSYLEEQAAKEFIAWLVKGGGSSGAPPPSGGGGSERKSCVECPPCPAPPVAGPSVFLFPPKPKDTLMISRTPEVTCVVVDVSHEDPEVQFNWYVDGVEVHNAKTKPREEQFNSTFRVVSVLTVVHQDWLNGKEYKCKVSNKGLPSSIEKTISKTKGQPREPQVYTLPPSREEMTKNQVSLTCLVKGFYPSDIAVEWESNGQPENNYKTTPPMLDSDGSFFLYSKLTVDKSRWQQGNVFSCSVMHEALHNHYTQKSLSLSPG
oxidation level at position W31 [1]: not oxidized
rate of fasting blood glucose reduction (db/db mice; db/db mice, 0.15 mg/kg Q3D sc): 46.8%
average rate of decline in random blood glucose levels (db/db mice; db/db mice, 0.15 mg/kg Q3D sc): 31.8%
average rate of fasting blood glucose reduction (db/db mice; db/db mice, 0.15 mg/kg Q3D sc): 55.0%
rate of fasting blood glucose reduction (db/db mice; db/db mice, 0.3 mg/kg Q3D sc): 55.6%
average rate of decline in random blood glucose levels (db/db mice; db/db mice, 0.3 mg/kg Q3D sc): 46.2%
average rate of fasting blood glucose reduction (db/db mice; db/db mice, 0.3 mg/kg Q3D sc): 61.8%
serum free fatty acid levels (db/db mice; db/db mice, 0.6 mg/kg): significantly reduced
rate of fasting blood glucose reduction (db/db mice; db/db mice, 0.6 mg/kg Q3D sc): 59.5%
average rate of decline in random blood glucose levels (db/db mice; db/db mice, 0.6 mg/kg Q3D sc): 50.8%
average rate of fasting blood glucose reduction (db/db mice; db/db mice, 0.6 mg/kg Q3D sc): 63.7%
perirenal fat content (db/db mice; db/db mice, 1.2 mg/kg): significantly reduced
rate of fasting blood glucose reduction (db/db mice; db/db mice, 1.2 mg/kg Q3D sc): 64.7%
average rate of decline in random blood glucose levels (db/db mice; db/db mice, 1.2 mg/kg Q3D sc): 54.3%
average rate of fasting blood glucose reduction (db/db mice; db/db mice, 1.2 mg/kg Q3D sc): 66.1%
serum fructosamine levels (db/db mice; db/db mice, 1.2 mg/kg sc): significant reduction
time the hypoglycemic effect (fasting blood glucose) can be maintained (db/db mice; db/db mice, 0.15, 0.3, 0.6 and 1.2 mg/kg every 3 days): at least 54 hours
scapular fat content (db/db mice; db/db mice, 0.15, 0.3 and 0.6 mg/kg): significantly reduced
serum fructosamine levels (db/db mice; db/db mice, 0.15-0.6 mg/kg sc): decreasing trend
subcutaneous fat content, inguinal fat content and their ratios to body weight (db/db mice; db/db mice, 0.3, 0.6 and 1.2 mg/kg): significantly reduced
random and fasting body weights (db/db mice; db/db mice, 0.3, 0.6 and 1.2 mg/kg (P<0.05, P<0.01, P<0.001)): significant decreases
insulin secretion (serum insulin levels) (db/db mice; db/db mice, 3 hours after administration): significantly promoted insulin secretion
fasting blood glucose levels versus model control group (db/db mice; db/db mice, Q3D sc, YN-011 all dose groups (P<0.001), Degludec 0.3 mg/kg): significant decrease; also recorded: significantly reduced fasting blood glucose levels
epididymal fat content and its ratio to body weight (db/db mice; db/db mice, YN-011 treatment groups vs solvent control): significant decrease
time the hypoglycemic effect was sustained (db/db mice; db/db mice, after repeated administration): 72 h
fasting serum insulin levels (db/db mice; [2]): dose-dependently increased
pancreatic-cell mass (db/db mice; [2]): significant increase
time after administration at which therapeutic effect was observed (db/db mice; db/db mice, first administration, dose as low as 0.15 mg/kg): 3 h
random plasma glucose (RPG) concentration (db/db mice; db/db mice, following the first subcutaneous administration, 0.15-1.2 mg/kg): significantly reduced
serum triglyceride levels (db/db mice; db/db mice, multiple sc injections vs solvent control): significantly decreased
RPG levels versus control group (db/db mice; db/db mice, repeated administration, all dose groups and time points except 0.15 mg/kg after the 4th administration (P=0.07)): significantly lower
side effects or safety risks (T2DM subjects; 1-4 mg sc): No significant side effects or safety risks
HbA1c levels compared to placebo (T2DM subjects; multiple sc administrations, 1 mg, 3 mg or 4 mg, p<0.05): persistent improvement; also recorded: significant difference compared to the placebo
fasting blood glucose compared to placebo (T2DM subjects; multiple sc administrations, 3 mg or 4 mg, p<0.05): statistically significant improvement; also recorded: significant difference compared to the placebo
